Columns and labels:
[1] = target: IL-1RAP expressed at the cell surface of human cells (human), Q9NPH3; assay: flow cytometry on monocytes of healthy donors' peripheral blood (2/5) and bone marrow (3/5); RFI against isotype; conditions: remark: other sources report otherwise
[2] = target: recombinant IL-1RAP biotinylated protein (UniProt Q9NPH3); assay: flow cytometry, biotinylated IL-1RAP (0.15 ng) on CAR-transduced primary T cells, anti-biotin antibody
[3] = target: recombinant IL-1RAP biotinylated protein (UniProt Q9NPH3); assay: flow cytometry, serial dilution of biotinylated IL-1RAP on CAR-transduced primary T cells, anti-biotin antibody; single experiment
[4] = target: recombinant IL-1RAP biotinylated protein (UniProt Q9NPH3); assay: flow cytometry, biotinylated IL-1RAP (1.25 ng) on CAR-transduced CEM cells, anti-biotin antibody
[5] = target: recombinant IL-1RAP biotinylated protein (UniProt Q9NPH3); assay: flow cytometry, serial dilution of biotinylated IL-1RAP on CAR-transduced CEM cells, anti-biotin antibody; single experiment

Sequence of recombinant IL-1RAP biotinylated protein (Q9NPH3 21-359 limits assumed): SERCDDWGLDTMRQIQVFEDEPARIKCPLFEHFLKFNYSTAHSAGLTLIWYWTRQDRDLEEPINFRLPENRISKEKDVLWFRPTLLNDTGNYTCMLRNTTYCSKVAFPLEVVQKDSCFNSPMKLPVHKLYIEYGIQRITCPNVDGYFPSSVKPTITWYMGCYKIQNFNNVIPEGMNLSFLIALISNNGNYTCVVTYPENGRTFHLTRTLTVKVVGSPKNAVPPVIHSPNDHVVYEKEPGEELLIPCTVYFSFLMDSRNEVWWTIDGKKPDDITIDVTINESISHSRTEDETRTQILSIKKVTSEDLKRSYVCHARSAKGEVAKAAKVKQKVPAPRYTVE
Sequence of IL-1RAP expressed at the cell surface of human cells (human), Q9NPH3 (Q9NPH3 21-570): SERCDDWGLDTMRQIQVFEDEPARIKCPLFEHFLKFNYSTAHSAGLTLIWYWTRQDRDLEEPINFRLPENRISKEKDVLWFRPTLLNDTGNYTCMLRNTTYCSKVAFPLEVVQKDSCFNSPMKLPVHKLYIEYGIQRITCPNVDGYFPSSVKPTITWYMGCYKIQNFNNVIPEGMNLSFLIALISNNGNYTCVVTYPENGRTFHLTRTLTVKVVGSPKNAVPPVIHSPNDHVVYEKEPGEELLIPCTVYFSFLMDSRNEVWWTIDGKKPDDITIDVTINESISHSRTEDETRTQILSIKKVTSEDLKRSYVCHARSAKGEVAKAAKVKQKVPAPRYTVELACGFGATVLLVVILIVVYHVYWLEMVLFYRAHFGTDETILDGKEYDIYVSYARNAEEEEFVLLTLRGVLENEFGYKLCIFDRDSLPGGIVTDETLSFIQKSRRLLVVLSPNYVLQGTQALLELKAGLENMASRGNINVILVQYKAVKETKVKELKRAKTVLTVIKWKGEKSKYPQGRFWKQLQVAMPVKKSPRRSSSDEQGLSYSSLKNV

RFI [1] | maximum percentage of Biotin+/CD19+ cells [2] [%] | amount of recombinant protein required for recruiting maximum of cells [3] [ng] | maximum percentage of Biotin+/CD19+ cells [4] [%] | amount of recombinant protein required for recruiting maximum of cells [5] [ng] | Binder
< 2 | – | – | – | – | mouse anti-hIL-1RAP monoclonal antibody, clone #E3C3 (antibody, V domains shown) VH: QVQLQQPGAELMMPGASVKVSCEASGYTFTDSWMHWVKQRPGQGLEWIGAIDPSDSYTTYNQKFTGKATLSVDESSNTAYMQLSSLTSEDSAVYYCARYYSGSNYISPFPYWGQGTLVTVSA VL: DIVMTQSHKFMSTSVGDRVTITCKASLDVSTAVAWYQQKPGQSPKLLIYSASYRYTGVPDRFTGSGSGTDFTFTISSVQAEDLAVYYCQQHYSPPFTFGSGTNLEIK
– | 68.5 | 0.15 | 85.8 | 1.25 | IL-1RAP CAR (scFv of #E3C3 with CD28-4.1BB-CD3z signaling chain) expressed at the surface of transduced CEM or primary T cells (protein, not shown: small tags and cut ends) scFv: QVQLQQPGAELMMPGASVKVSCEASGYTFTDSWMHWVKQRPGQGLEWIGAIDPSDSYTTYNQKFTGKATLSVDESSNTAYMQLSSLTSEDSAVYYCARYYSGSNYISPFPYWGQGTLVTVSAGGSGGGGSGGGGSVDMESQIQVFVFVFLWLSGVDGDIVMTQSHKFMSTSVGDRVTITCKASLDVSTAVAWYQQKPGQSPKLLIYSASYRYTGVPDRFTGSGSGTDFTFTISSVQAEDLAVYYCQQHYSPPFTFGSGTNLEIK

From patent publication US20220235138A1, “CAR-T CELLS TARGETING IL-1RAP AND THEIR USE IN ACUTE MYELOID LEUKEMIA (AML)” (ETABLISSEMENT FRANCAIS DU SANG, priority 2019, published 2022)
